Source: US20220389118A1 (Chugai, published 2022)
Changes are numbered by the printed parent chain. Like-named read-outs stand apart in the source and are kept apart here. Blank lines part the entries; values can stand above or below the binder they belong to.

How the values were obtained:
[1] = molecular target: T1, human FcγRIIb extracellular domain with C-terminal His tag (human, UniProt P31994 43-217); assay: SPR (Biacore), antibody captured, FcγR analyte
T1 construct: extracellular domain; not shown: His tag at the C terminus
T1 sequence (looked up): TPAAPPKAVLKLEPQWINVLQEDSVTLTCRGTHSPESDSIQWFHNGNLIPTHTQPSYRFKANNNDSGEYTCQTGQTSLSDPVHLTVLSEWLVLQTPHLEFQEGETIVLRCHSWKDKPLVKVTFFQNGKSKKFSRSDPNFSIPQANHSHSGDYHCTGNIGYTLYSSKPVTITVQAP

[2] = molecular target: T1, human FcγRIIb extracellular domain with …; assay: SPR (Biacore), antibody captured, FcγR analyte; remark: listed apart in the source
[3] = molecular target: T2, human FcγRIIa type H (H131) extracellular domain with C-terminal His tag (human, UniProt P12318 34-217); assay: SPR (Biacore), antibody captured, FcγR analyte
T2 construct: extracellular domain; also called FcγRIIaH; not shown: His tag at the C terminus
T2 sequence (looked up): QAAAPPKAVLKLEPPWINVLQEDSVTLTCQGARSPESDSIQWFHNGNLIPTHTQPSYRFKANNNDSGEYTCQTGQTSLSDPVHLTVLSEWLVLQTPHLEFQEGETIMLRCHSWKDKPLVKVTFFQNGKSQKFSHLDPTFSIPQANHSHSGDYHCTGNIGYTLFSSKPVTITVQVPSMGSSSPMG

[4] = molecular target: T3, human FcγRIa extracellular domain with C-terminal His tag (human, UniProt P12314 16-292); assay: SPR (Biacore), antibody captured, FcγR analyte
T3 construct: not shown: His tag at the C terminus

[5] = molecular target: T4, human FcγRIIb extracellular domain (human, UniProt P31994 43-217); assay: ratio of the SPR KD for FcγRIIaH to the KD for FcγRIIb (selectivity)
T4 construct: also called FcγIIB; not shown: His tag at the C terminus
T4 sequence: T1 sequence (looked up)

[6] = molecular target: T4, human FcγRIIb extracellular domain; assay: ratio of the SPR KD for FcγRIIaR to the KD for FcγRIIb (selectivity)
[7] = molecular target: T5, human FcγRIIa type R extracellular domain (human, UniProt P12318 34-217); assay: SPR (Biacore), antibody captured on chip, FcγR extracellular domain as analyte, 25 C
T5 construct: also called FcγRIIaR; FcγRIIa(R); not shown: His tag at the C terminus
T5 chain: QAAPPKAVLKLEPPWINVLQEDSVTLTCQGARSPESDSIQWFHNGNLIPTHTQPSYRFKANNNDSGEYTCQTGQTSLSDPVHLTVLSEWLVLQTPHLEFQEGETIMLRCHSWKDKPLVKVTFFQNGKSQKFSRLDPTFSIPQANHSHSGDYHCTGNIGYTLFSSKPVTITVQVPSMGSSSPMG

[8] = molecular target: T6, human FcγRIIa type H extracellular domain (human, UniProt P12318 34-217); assay: as above
T6 construct: also called FcγRIIaH; FcγRIIa(H); not shown: His tag at the C terminus
T6 sequence: T5 chain with R133H

[9] = molecular target: T7, human FcγRIa extracellular domain (human, UniProt P12314 16-292); assay: as above
T7 construct: also called CD64; not shown: His tag at the C terminus

[10] = molecular target: T4, human FcγRIIb extracellular domain; assay: as above
[11] = molecular target: T5, human FcγRIIa type R extracellular …; assay: fold against IL6R-B3/IL6R-L, from SPR KD values
[12] = molecular target: T4, human FcγRIIb extracellular domain; assay: fold against IL6R-B3/IL6R-L, from SPR KD values
[13] = molecular target: T8, soluble human IL-6 receptor (human, UniProt P08887 20-357); assay: SPR (Reference Example 6)
T8 construct: also called hsIL-6R
T8 sequence: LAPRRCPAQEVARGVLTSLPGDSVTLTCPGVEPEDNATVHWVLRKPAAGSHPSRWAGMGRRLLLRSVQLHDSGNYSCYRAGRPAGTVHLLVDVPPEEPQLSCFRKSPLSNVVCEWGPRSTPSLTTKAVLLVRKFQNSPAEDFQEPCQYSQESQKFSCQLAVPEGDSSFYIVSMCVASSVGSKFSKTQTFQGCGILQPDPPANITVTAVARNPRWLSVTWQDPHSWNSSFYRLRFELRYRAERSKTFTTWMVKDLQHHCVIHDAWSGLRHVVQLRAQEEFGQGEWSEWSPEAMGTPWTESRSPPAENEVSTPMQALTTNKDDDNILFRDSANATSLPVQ
Method: (§1) The kinetic analysis of the antigen-antibody reactions was conducted in solutions with 2 mM and 3 μM calcium ion concentrations, set as high and low calcium ion concentration conditions, respectively. The antibody of interest was captured on Sensor chip CM4 (GE Healthcare) on which an appropriate amount of Protein A (Invitrogen) was immobilized by an amine coupling method. Two buffers [10 mM ACES, 150 mM NaCl, 0.05% (w/v) Tween 20, and 2 mM CaCl₂) (pH 7.4) or 10 mM ACES, 150 mM NaCl, 0.05% (w/v) Tween 20, and 3 μmol/L CaCl₂ (pH 7.4)] were used as running buffers. These buffers were used for diluting human IL-6 receptor. All the measurements were conducted at 37° C.
(§2) Subsequently, the sensor chip was regenerated by injecting 10 mM glycine-HCl (pH 1.5) at a flow rate 30 μL/min for 30 seconds. Dissociation constants (KD) (M) were calculated from the sensorgrams obtained in the measurement, using a steady-state affinity model. Each parameter was calculated using the Biacore T100 Evaluation Software (GE Healthcare).

[14] = molecular target: T9, soluble human IL-6 receptor (hsIL-6R) (human, UniProt P08887 20-357); assay: SPR (Biacore T100), 3 µM CaCl2; estimated by Equation 3; summary table
T9 sequence: T8 sequence
Method: as §1, §2

[15] = molecular target: T9, soluble human IL-6 receptor (hsIL-6R); assay: SPR (Biacore T100), 3 µM CaCl2, pH 7.4, 37 C; KD estimated from Req, Rmax, RI and C by Equation 3
Method: as §1, §2

T7 sequence (P12314 16-292): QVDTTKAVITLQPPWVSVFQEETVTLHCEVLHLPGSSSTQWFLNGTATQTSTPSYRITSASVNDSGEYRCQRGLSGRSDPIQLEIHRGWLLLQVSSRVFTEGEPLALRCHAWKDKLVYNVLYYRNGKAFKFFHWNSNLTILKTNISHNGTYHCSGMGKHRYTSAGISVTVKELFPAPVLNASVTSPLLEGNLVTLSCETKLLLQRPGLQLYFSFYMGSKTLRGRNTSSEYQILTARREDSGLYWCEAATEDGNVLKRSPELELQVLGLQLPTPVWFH
T3 sequence (P12314 16-292): as above

B1: IL6R-BP350/IL6R-L (antibody, human IgG1, kappa)
heavy: QVQLQESGPGLVKPSETLSLTCAVSGHSISHDHAWSWVRQPPGEGLEWIGFISYSGITNYNPSLQGRVTISRDNSKNTLYLQMNSLRAEDTAVYYCARSLARTTAMDYWGEGTLVTVSSASTKGPSVFPLAPSSKSTSGGTAALGCLVKDYFPEPVTVSWNSGALTSGVHTFPAVLQSSGLYSLSSVVTVPSSSLGTQTYICNVNHKPSNTKVDKKVEPKSCDKTHTCPPCPAPDLLGDDSVFLFPPKPKDTLMISRTPEVTCVVVDVEEEDGEVKFNWYVDGVEVHNAKTKPREEQYNSTYRVVSVLTVLHQDWLNGKEYKCKVSNKALPAPIEKTISKAKGQPREPQVYTLPPSRDELTKNQVSLTCLVKGFYPSDIAVEWESNGQPENNYKTTPPVLDSDGSFFLYSKLTVDKSRWQQGNVFSCSVMHEALHNHYTQESLSLSP
light: not shown
notes: S267E introduced into IL6R-BP267; copies: 2 + 2
Kd [1]: 100 nM

B8: IL6R-BP367/IL6R-L (antibody, human IgG1, kappa)
heavy: B1 heavy with E269S, E271D
light: not shown
notes: E269D introduced into IL6R-BP267; copies: 2 + 2
Kd [1]: 100 nM

B9: FH4-IgG1 (antibody, V domains shown)
VH: QVQLVQSGAEVKKPGSSVKVSCKASGGTFSSYAISWVRQAPGQGLEWMGGIIPIFGTANYAQKFQGRVTITADESTSTAYMELSSLRSEDTAVYYCARERDYYDSSGYYDAFDIWGQGTMVTVSS
VL: ETTVTQSPSFLSASVGDRVTITCITTTDIDDDMNWFQQEPGKAPKLLISEGNILRPGVPSRFSSSGYGTDFTLTISKLQPEDFATYYCLQSDNLPFTFGQGTKLEIKR
Ca-dependent binding ability [13]: ≥ 100 fold

B10: FH4-IgG1 (antibody, V domains shown)
VH: B9 VH
VL: B9 VL
Kd [14]: ≥ 34000 nM
Kd [15]: ~34000 nM

B11: 6RL#9-IgG1 (antibody, V domains shown)
VH: QVQLVQSGAEVKKPGASVKVSCKASGYTFTSYYMHWVRQAPGQGLEWMGIINPSGGSTSYAQKFQGRVTMTRDTSTSTVYMELSSLRSEDTAVYYCARDDPGGGEYYFDYWGQGTLVTVSS
VL: QSVLTQPPSVSGAPGQRVTISCTGSRSNMGAGYDVHWYQLLPGAAPKLLISHNTHRPSGVPDRFSGSKSGASASLAITGLQAEDEADYYCQSHDSSLSAVVFGGGTKLTVLS
notes: also called antibody 6RL#9
Ca-dependent binding ability [13]: ≥ 100 fold

B12: 6RL#9-IgG1 (antibody, V domains shown)
VH: B11 VH
VL: B11 VL
Kd [14]: ≥ 31000 nM
Kd [15]: ~31000 nM

Further lines, results first:

Kd [2]: 4 nM
Kd [3]: 1600 nM
B2: IL6R-BP455/IL6R-L (antibody, human IgG1, kappa)
heavy: B1 heavy with E269A, A332R, P398L
light: not shown
notes: P396L introduced into IL6R-BP423; copies: 2 + 2

Kd [4]: 0.9 nM
Kd [3]: 2000 nM
B3: IL6R-BP447/IL6R-L (antibody, human IgG1, kappa)
heavy: B1 heavy with E269A, A332R, P398A
light: not shown
notes: P396A introduced into IL6R-BP423; copies: 2 + 2

Kd [4]: 0.6 nM
Kd [3]: 2000 nM
B4: IL6R-BP456/IL6R-L (antibody, human IgG1, kappa)
heavy: B1 heavy with E269A, A332R, P398M
light: not shown
notes: P396M introduced into IL6R-BP423; copies: 2 + 2

Kd [2]: 4 nM
B5: IL6R-BP464/IL6R-L (antibody, human IgG1, kappa)
heavy: B1 heavy with E269A, A332R, P398Y
light: not shown
notes: P396Y introduced into IL6R-BP423; copies: 2 + 2

KD(IIaH)/KD(IIb) [5]: 525
KD(IIaR)/KD(IIb) [6]: 29.1
Kd [7]: 460 nM
Kd [8]: 8300 nM
Kd [9]: 12 nM
Kd [10]: 16 nM
KD(IIaR) of the parent polypeptide/KD(IIaR) of the altered polypeptide [11]: 2.4
KD(IIb) of the parent polypeptide/KD(IIb) of the altered polypeptide [12]: 196
B6: IL6R-BP563/IL6R-L (antibody, human IgG1, kappa)
heavy: B1 heavy with E269S, E274D, Y298D, A332R
light: not shown
notes: copies: 2 + 2

KD(IIaH)/KD(IIb) [5]: 856
KD(IIaR)/KD(IIb) [6]: 41.5
Kd [7]: 230 nM
Kd [8]: 4700 nM
Kd [9]: 2.4 nM
Kd [10]: 5.5 nM
KD(IIaR) of the parent polypeptide/KD(IIaR) of the altered polypeptide [11]: 4.8
KD(IIb) of the parent polypeptide/KD(IIb) of the altered polypeptide [12]: 565
B7: IL6R-BP565/IL6R-L (antibody, human IgG1, kappa)
heavy: B1 heavy with E269A, Y298D, A332R
light: not shown
notes: copies: 2 + 2
